For test [1], the target named is T1, Full-length Human PSMA (TSC435), on cells (human, UniProt Q04609 1-750).
T1 construct: also called CHOK1SV/huPSMA; PSMA on C4-2B, 22RV1, LNCaP, MDA-PCa-2b cells
As to the kind of experiment: flow cytometry on C4-2B cells, PE goat anti-human IgG Fc secondary, MFI (median). As for the experimental part:
The PSMA-binding domain PSMA01023 was evaluated in several different structural formats, including an alternative Fc region with different mutations to eliminate effector function. The PSMA01023 binding domain was configured in scFv-Fc format in VL-VH (PSMA01036) and VH-VL (PSMA01037) orientations and in Fc-scFv format in VL-VH (PSMA01040) and VH-VL (PSMA01041) orientations. These molecules were evaluated for the impact of the orientation of the scFv domains (VH-VL versus VL-VH) and position on the Fc (N- vs. C-terminus) on binding to PSMA (+) tumor cells.
C4-2B and 22RV1 cells were labelled at approximately 100,000 cells per well, in 96-well plates, with serial dilutions of PSMA-binding constructs ranging from of 0.1 to 300 nM for 30 min on ice, followed by washes and incubation with PE-labeled minimum cross species reactive secondary antibody, goat anti-human IgG Fcγ, F(ab′)2 (Jackson Laboratory) for 30 minutes on ice. Washes and incubation were done in staining buffer (PBS with 0.2% BSA and 2 mM EDTA). Cells were collected using a BDM LSRII or a BD FACSymphony™ flow cytometer (BD Biosciences) and analyzed by FlowJo flow cytometry analysis software. Median fluorescence intensity (MFI) of bound molecules on cells was determined after exclusion of doublets. Graphs were plotted using GraphPad Prism 7®.
Background: Flow cytometry measures light scatter and fluorescence of single cells or particles in a stream.

Test [2] deals with T1, Full-length Human PSMA (TSC435), on …. Described as above. This is another data set of the same source.
For test [3], the target named is T2, human CD3ε in the TCR/CD3 complex on Jurkat cells (human, UniProt P07766 23-207).
T2 construct: whole, on cells; On the cells it stands in the whole TCR/CD3 complex; also called CD3 (+) cells; CD3-expressing Jurkat cells
As to the kind of experiment: flow cytometry on Jurkat cells, PE goat anti-human IgG Fc secondary, MFI (median).

T1 sequence (Q04609 whole entry): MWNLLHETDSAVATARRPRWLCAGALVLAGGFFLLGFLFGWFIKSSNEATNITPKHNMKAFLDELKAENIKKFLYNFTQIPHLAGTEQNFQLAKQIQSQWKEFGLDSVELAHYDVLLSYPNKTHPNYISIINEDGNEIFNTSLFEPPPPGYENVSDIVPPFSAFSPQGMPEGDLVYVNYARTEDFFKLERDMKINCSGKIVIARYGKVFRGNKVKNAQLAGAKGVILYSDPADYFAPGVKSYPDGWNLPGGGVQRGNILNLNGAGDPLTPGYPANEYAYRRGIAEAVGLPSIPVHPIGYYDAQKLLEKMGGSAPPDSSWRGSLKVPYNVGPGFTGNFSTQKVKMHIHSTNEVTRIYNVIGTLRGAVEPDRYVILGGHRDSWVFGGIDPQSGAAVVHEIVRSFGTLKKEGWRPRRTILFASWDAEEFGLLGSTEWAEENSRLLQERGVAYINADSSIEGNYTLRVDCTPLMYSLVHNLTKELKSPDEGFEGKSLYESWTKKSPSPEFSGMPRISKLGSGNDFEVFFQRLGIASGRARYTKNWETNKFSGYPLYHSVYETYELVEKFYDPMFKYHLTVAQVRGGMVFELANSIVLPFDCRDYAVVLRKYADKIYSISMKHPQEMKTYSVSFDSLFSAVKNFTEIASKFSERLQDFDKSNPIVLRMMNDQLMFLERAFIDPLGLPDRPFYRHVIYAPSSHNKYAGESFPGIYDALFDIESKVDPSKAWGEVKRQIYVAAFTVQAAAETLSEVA
T2 sequence (P07766 23-207, one chain of several): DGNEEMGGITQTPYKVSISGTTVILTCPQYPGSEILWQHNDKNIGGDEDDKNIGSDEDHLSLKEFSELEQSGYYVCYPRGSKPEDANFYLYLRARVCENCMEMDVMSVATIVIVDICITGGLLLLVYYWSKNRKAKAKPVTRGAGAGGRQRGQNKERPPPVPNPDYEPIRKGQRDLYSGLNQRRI

B1: PSMA01040 Fc-linker anti PSMA scFv (Fc fusion)
chain: SSEPKSSDKTHTCPPCPAPPAAAPSVFLFPPKPKDTLMISRTPEVTCVVVDVSHEDPEVKFNWYVDGVEVHNAKTKPREEQYNSTYRVVSVLTVLHQDWLNGKEYKCAVSNKALPAPIEKTISKAKGQPREPQVYTLPPSRDELTKNQVSLTCLVKGFYPSDIAVEWESNGQPENNYKTTPPVLDSDGSFFLYSKLTVDKSRWQQGNVFSCSVMHEALHNHYTQKSLSLSPGGGGSPSDIQMTQSPSTLSASVGDRVTITCRASKSISKYLAWYQQKPGKAPKLLIHSGSSLESGVPSRFSGSGSGTEFTLTISSLQPDDFATYYCQQHIEYPWTFGQGTKVEIKGGGGSGGGGSGGGGSGGGGSQVQLVQSGAEVKKPGASVKVSCKASGYTFTDYYMHWVRQAPGQGLEWMGYFNPYNDYTRYAQKFQGRVTMTRDTSTSTVYMELSSLRSEDTAVYYCARSDGYYDAMDYWGQGTTVTVSSR
As to B1, the binding result in test [1] is given as “binds”.

B2: PSMA01036 Anti-PSMA scFv-Fc (Fc fusion)
chain: DIQMTQSPSTLSASVGDRVTITCRASKSISKYLAWYQQKPGKAPKLLIHSGSSLESGVPSRFSGSGSGTEFTLTISSLQPDDFATYYCQQHIEYPWTFGQGTKVEIKGGGGSGGGGSGGGGSGGGGSQVQLVQSGAEVKKPGASVKVSCKASGYTFTDYYMHWVRQAPGQGLEWMGYFNPYNDYTRYAQKFQGRVTMTRDTSTSTVYMELSSLRSEDTAVYYCARSDGYYDAMDYWGQGTTVTVSSSEPKSSDKTHTCPPCPAPPAAAPSVFLFPPKPKDTLMISRTPEVTCVVVDVSHEDPEVKFNWYVDGVEVHNAKTKPREEQYNSTYRVVSVLTVLHQDWLNGKEYKCAVSNKALPAPIEKTISKAKGQPREPQVYTLPPSRDELTKNQVSLTCLVKGFYPSDIAVEWESNGQPENNYKTTPPVLDSDGSFFLYSKLTVDKSRWQQGNVFSCSVMHEALHNHYTQKSLSLSPGK
Turning to B2, the binding result in test [1] is “binds”.

B3: PSMA01037 Anti-PSMA scFv-Fc (Fc fusion)
chain: QVQLVQSGAEVKKPGASVKVSCKASGYTFTDYYMHWVRQAPGQGLEWMGYFNPYNDYTRYAQKFQGRVTMTRDTSTSTVYMELSSLRSEDTAVYYCARSDGYYDAMDYWGQGTTVTVSSGGGGSGGGGSGGGGSGGGGSDIQMTQSPSTLSASVGDRVTITCRASKSISKYLAWYQQKPGKAPKLLIHSGSSLESGVPSRFSGSGSGTEFTLTISSLQPDDFATYYCQQHIEYPWTFGQGTKVEIKSSSEPKSSDKTHTCPPCPAPPAAAPSVFLFPPKPKDTLMISRTPEVTCVVVDVSHEDPEVKFNWYVDGVEVHNAKTKPREEQYNSTYRVVSVLTVLHQDWLNGKEYKCAVSNKALPAPIEKTISKAKGQPREPQVYTLPPSRDELTKNQVSLTCLVKGFYPSDIAVEWESNGQPENNYKTTPPVLDSDGSFFLYSKLTVDKSRWQQGNVFSCSVMHEALHNHYTQKSLSLSPGK
notes: also called PSMA010137
As to B3, the binding result in test [1] is reported as “binds”.

B4: PSMA01041 Fc-linker-anti PSMA scFv (Fc fusion)
chain: SSEPKSSDKTHTCPPCPAPPAAAPSVFLFPPKPKDTLMISRTPEVTCVVVDVSHEDPEVKFNWYVDGVEVHNAKTKPREEQYNSTYRVVSVLTVLHQDWLNGKEYKCAVSNKALPAPIEKTISKAKGQPREPQVYTLPPSRDELTKNQVSLTCLVKGFYPSDIAVEWESNGQPENNYKTTPPVLDSDGSFFLYSKLTVDKSRWQQGNVFSCSVMHEALHNHYTQKSLSLSPGGGGSPSQVQLVQSGAEVKKPGASVKVSCKASGYTFTDYYMHWVRQAPGQGLEWMGYFNPYNDYTRYAQKFQGRVTMTRDTSTSTVYMELSSLRSEDTAVYYCARSDGYYDAMDYWGQGTTVTVSSGGGGSGGGGSGGGGSGGGGSDIQMTQSPSTLSASVGDRVTITCRASKSISKYLAWYQQKPGKAPKLLIHSGSSLESGVPSRFSGSGSGTEFTLTISSLQPDDFATYYCQQHIEYPWTFGQGTKVEIKR
Take B4: the binding result in test [1] is “binds”.

B5: PSMA01086 Anti PSMA scFv x Fc; Anti PSMA scFv x Fc x linker x Anti CD3 scFv (bispecific antibody)
chain 1: QVQLVQSGAEVKKPGASVKVSCKASGYTFTDYYMHWVRQAPGQGLEWMGYFNPYNDYTRYAQKFQGRVTMTRDTSTSTVYMELSSLRSEDTAVYYCARSDGYYDAMDYWGQGTTVTVSSGGGGSGGGGSGGGGSGGGGSDIQMTQSPSSLSASVGDRVTITCRASKSISKYLAWYQQKPGKAPKLLIHSGSSLESGVPSRFSGSGSGTEFTLTISSLQPDDFATYYCQQHIEYPWTFGQGTKVEIKEPKSSDKTHTCPPCPAPPAAAPSVFLFPPKPKDTLMISRTPEVTCVVVDVSHEDPEVKFNWYVDGVEVHNAKTKPREEQYNSTYRVVSVLTVLHQDWLNGKEYKCAVSNKALPAPIEKTISKAKGQPREPQVYTLPPSRDELTKNQVSLWCLVKGFYPSDIAVEWESNGQPENNYKTTPPVLDSDGSFFLYSKLTVDKSRWQQGNVFSCSVMHEALHNHYTQKSLSLSPG
chain 2: QVQLVQSGAEVKKPGASVKVSCKASGYTFTDYYMHWVRQAPGQGLEWMGYFNPYNDYTRYAQKFQGRVTMTRDTSTSTVYMELSSLRSEDTAVYYCARSDGYYDAMDYWGQGTTVTVSSGGGGGGGGSGGGGSGGGGSDIQMTQSPSSLSASVGDRVTITCRASKSISKYLAWYQQKPGKAPKLLIHSGSSLESGVPSRFSGSGSGTEFTLTISSLQPDDFATYYCQQHIEYPWTFGQGTKVEIKEPKSSDKTHTCPPCPAPPAAAPSVFLFPPKPKDTLMISRTPEVTCVVVDVSHEDPEVKFNWYVDGVEVHNAKTKPREEQYNSTYRVVSVLTVLHQDWLNGKEYKCAVSNKALPAPIEKTISKAKGQPREPQVYTLPPSRDELTKNQVSLSCAVKGFYPSDIAVEWESNGQPENNYKTTPPVLDSDGSFFLVSKLTVDKSRWQQGNVFSCSVMHEALHNRFTQKSLSLSPGGGGSPSDIQMTQSPSSLSASVGDRVTITCRASSSVSYMNWYQQKPGKAPKRWIYDSSKLASGVPSRFSGSGSGTDFTLTISSLQPEDFATYYCQQWSRNPPTFGQGTKVEIKGGGGSGGGGSGGGGSGGGGSQVQLVQSGAEVKKPGASVKVSCKASGYTFTRSTMHWVRQAPGQGLEWIGYINPSSAYTNYAQKFQGRVTLTADKSTSTAYMELSSLRSEDTAVYYCASPQVHYDYNGFPYWGQGTLVTVSS
B5: the EC50 (usually the concentration that produces a half-maximal response) was 1 nM in test [2] and over 261 nM in test [3].

The values above are taken from patent US20240301086A1 (APTEVO RESEARCH AND DEVELOPMENT, published 2024).
